Test results as given in patent US12358960B2, “Selective targeting of ubiquitin- and ubiquitin-like E1-activating enzymes by structurally-stabilized peptides” (Dana-Farber Cancer Institute, Inc., priority 2019, dated 2025).
Bridge positions count the residues as written; N and C are the ends. Square brackets hold non-standard residues; d marks the D form. R8 = C=CCCCCCC[C@@](C)(N)C(=O)O; S5 = C=CCCC[C@](C)(N)C(=O)O; Nle = CCCC[C@H](N)C(=O)O

Molecular target: T1, UBA1 (Homo sapiens, UniProt P22314)
T1 sequence (P22314 1-1058): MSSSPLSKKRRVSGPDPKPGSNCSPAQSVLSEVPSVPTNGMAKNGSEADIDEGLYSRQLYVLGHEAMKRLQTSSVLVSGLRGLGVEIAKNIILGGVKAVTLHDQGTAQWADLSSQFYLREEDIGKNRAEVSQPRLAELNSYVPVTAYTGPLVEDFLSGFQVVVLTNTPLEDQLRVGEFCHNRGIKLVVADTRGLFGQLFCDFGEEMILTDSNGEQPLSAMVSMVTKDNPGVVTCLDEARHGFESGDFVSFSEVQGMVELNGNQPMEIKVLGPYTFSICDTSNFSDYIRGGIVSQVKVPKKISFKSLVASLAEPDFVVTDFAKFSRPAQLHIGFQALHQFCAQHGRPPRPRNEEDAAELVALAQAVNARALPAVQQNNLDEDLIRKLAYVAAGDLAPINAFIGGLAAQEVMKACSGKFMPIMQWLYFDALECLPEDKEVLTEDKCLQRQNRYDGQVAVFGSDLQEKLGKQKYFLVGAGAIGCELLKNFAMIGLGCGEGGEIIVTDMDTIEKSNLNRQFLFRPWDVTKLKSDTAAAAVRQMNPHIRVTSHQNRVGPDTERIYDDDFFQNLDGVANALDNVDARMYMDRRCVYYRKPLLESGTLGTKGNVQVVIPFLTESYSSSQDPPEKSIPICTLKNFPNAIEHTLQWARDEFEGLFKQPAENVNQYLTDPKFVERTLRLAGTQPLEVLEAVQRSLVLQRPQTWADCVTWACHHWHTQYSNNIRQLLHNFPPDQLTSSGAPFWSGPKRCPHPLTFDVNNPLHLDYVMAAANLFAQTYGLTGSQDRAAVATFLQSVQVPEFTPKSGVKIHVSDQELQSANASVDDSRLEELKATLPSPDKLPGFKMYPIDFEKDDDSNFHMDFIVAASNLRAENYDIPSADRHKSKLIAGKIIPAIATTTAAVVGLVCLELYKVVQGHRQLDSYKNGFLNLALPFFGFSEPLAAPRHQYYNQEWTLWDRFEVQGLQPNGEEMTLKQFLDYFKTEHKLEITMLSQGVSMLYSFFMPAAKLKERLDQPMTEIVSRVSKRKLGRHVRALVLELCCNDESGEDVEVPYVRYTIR
Experiment: Streptavidin-biotin pull-down with recombinant protein
Format: binding
Settings: biotinylated peptide, silver stain
Experimental: Streptavidin-biotin pull-down assays: For recombinant protein pull-downs, 10 pmol recombinant human UBA1 was incubated with 5 nmol C-terminally biotinylated SAH-UBE2A or DMSO vehicle control in a total volume of 1 mL binding buffer (50 mM NaCl, 20 mM HEPES, pH 7.4, 5 mM DTT) for 1.5 hours at 4° C. 30 μL of pre-equilibrated streptavidin agarose beads were then added and incubated for an additional 1.5 hours at 4° C. The beads were pelleted by centrifugation and washed three times with NP-40 buffer (20 mM HEPES, pH 7.4, 50 mM NaCl, 5 mM DTT, 0.5% [v/v] NP-40) before eluting the protein sample from the beads by heating at 70° C. for 10 min in 3×SDS loading buffer. Samples were subjected to electrophoresis and silver staining (Pierce 24612). […] Proteins were separated by SDS-PAGE gel electrophoresis and detected by western blot against UBE1 (Abcam ab34711). […] Conjugation of ubiquitin to E2 by E1 is monitored by conversion of free E2 (17 kDa) to E2˜ubiquitin conjugate (26 kDa). Quantitation of percent inhibition was calculated from densitometry of silver stain images. Error bars represent ±1 SEM calculated from three independent experiments.

## biotinylated SAH-UBE2A: C-terminally biotinylated SAH-UBE2A (Ac-[Nle]STP[R8]RRRL[Nle]R[S5]FKRLQ-biotin; staple 5-12)
  direct binding to recombinant UBA1, streptavidin capture: direct binding of biotinylated SAH-UBE2A to recombinant UBA1
